Laboratory results as given in article PMC3273814.

System: T1, Ms6564 (Mycobacterium smegmatis mc2 155), ORF:45299f77
T1 sequence: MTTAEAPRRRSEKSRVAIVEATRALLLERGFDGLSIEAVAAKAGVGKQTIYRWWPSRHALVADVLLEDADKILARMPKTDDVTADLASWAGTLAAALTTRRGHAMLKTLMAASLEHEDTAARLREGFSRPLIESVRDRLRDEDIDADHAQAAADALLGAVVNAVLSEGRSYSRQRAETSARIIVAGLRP
Test: DNase I footprinting

“TTAAATCCGCTGGCCCCGATCACCAGTTTCGTCGCTGTCATAGGCCCTTGCGCTCGTGTCCTCGGGTCATAAACGAGACGGTACGTCTCGTCTTGTGGCAGAGTACGGGGTGTCACTTTTCGTGTAAAGGCCTGCGATGACCACCGCTGAAGCGCCCCGCCGGCGCAGTGAGAAGTCGCGGGTGGCCAT (double strand) [Ms6564p4 (p4-1 / p4-2)]” was tested, and the binding was “binds”.
